B1: LINE1-mini (parent)
chain: GGCAGAGCUCAACACAGCGUGGCAAAGUGGCUGUGGCUAGACUGCC

The series covers variants of B1. As to the kind of experiment: self-cleavage, relative activity (ratio to wild type); higher = more cleavage; in vitro, sequencing; the parent is a self-cleaving ribozyme.
With G27C G35A, the self-cleavage worked out at 0.09. G27C G35C: the self-cleavage was 0.25. The figure for G27C G35U is 0.07.

On to G27A A39U, for which the self-cleavage is 0.59. With G27A A39G, the self-cleavage was 0.08. The figure for G27A A39C is 0.11; for G27A U34C it is 0.13; for G27A U34G it is 0.32.

Consider G27A U34A, for which the self-cleavage worked out at 0.19. As to G27C G40U, the self-cleavage was determined as 0.12.

Regarding G27C G40A, the self-cleavage worked out at 0.12. The value for G27C G40C was 0.07. The figure for A26C C46U is 1.46; for A26C C46A it is 0.83; for A26C C46G it is 0.75. The figure for G27C G33A is 0.13.

With G27C G33U, the self-cleavage worked out at 0.12. With G27C G33C, the self-cleavage is 0.04.

In the case of G27A C37G, the self-cleavage came to 0.02.

On to G27A C37U, for which the self-cleavage is 0.05. Regarding G27A C37A, the self-cleavage came to 0.05. The value for A26G G44A was 0.31; that for A26G G44C was 0.28. The figure for A26G G44U is 0.3. The value for A25U U38G was 0.03. With A25U U38A, the self-cleavage was 0.6.

As for A25U U38C, the self-cleavage came out at 0.31. The value for A26C G35U was 0.09. The value for A26C G35C was 0.16; that for A26C G35A was 0.18; that for A26U G33C was 0.06.

Take A26U G33A: the self-cleavage turned out to be 0.09. The value for A26U G33U was 0.08; that for A26C C45A was 0.8; that for A26C C45U was 1.17. Regarding A26C C45G, the self-cleavage was 0.8.

Turning to A25U U43G, the self-cleavage turned out to be 0. Regarding A25U U43C, the self-cleavage was 0.1. The value for A25U U43A was 0.21. The value for G27C G30A was 1.2; that for G27C G30U was 1.72; that for G27C G30C was 0.84. Turning to G27U C46A, the self-cleavage amounted to 1.11.

With G27U C46U, the self-cleavage came out at 1.05. The figure for G27U C46G is 0.76; for G27C G29C it is 0.37; for G27C G29U it is 0.51. The figure for G27C G29A is 0.39. The value for G27U C42U was 0.2; that for G27U C42A was 0.17; that for G27U C42G was 0.04. In the case of A26C A39C, the self-cleavage was determined as 0.09. The value for A26C A39G was 0.05; that for A26C A39U was 0.43. The value for G27C U34A was 0.2. Consider G27C U34C, for which the self-cleavage amounted to 0.08. The value for G27C U34G was 0.2; that for A26C G29C was 0.37; that for A26C G29U was 0.54. The figure for G27U A41C is 0.06.

In the case of G27U A41G, the self-cleavage was found to be 0.27.

Consider G27U A41U, for which the self-cleavage amounted to 0.49. The value for A26U U43C was 0.12. The value for A26U U43G was 0.09; that for A26U U43A was 0.08; that for A26U C37U was 0.08. The figure for A26U C37G is 0.05; for A26U C37A it is 0.08; for G27A U32A it is 0.06. G27A U32G: the self-cleavage came out at 0.21. The value for G27A U32C was 0.15. The value for G27C C42G was 0.09. The value for G27C C42A was 0.07; that for G27C C42U was 0.11; that for A26U G35U was 0.16. A26U G35A: the self-cleavage was found to be 0.24. Consider A26U G35C, for which the self-cleavage was 0.09. The value for A26G U43C was 0.05; that for A26G U43G was 0.03; that for A26G U43A was 0.07. For the variant A26G C37G, the self-cleavage was found to be 0.03. The value for A26G C37A was 0.02. The figure for A26G C37U is 0.04; for G27A U38C it is 0.26. The figure for G27A U38G is 0.02. Take G27A U38A: the self-cleavage amounted to 0.28. With A26U U34G, the self-cleavage stood at 0.15. Regarding A26U U34C, the self-cleavage came out at 0.18. The value for A26U U34A was 0.07; that for A26U C31U was 0.18; that for A26U C31A was 0.14.

Consider A26U C31G, for which the self-cleavage stood at 0.08.

For A26G G40A, the self-cleavage came out at 0.14. The value for A26G G40U was 0.15; that for A26G G40C was 0.08. The value for A26C G27U was 0.46. On to A26C G27A, for which the self-cleavage was determined as 0.57. Regarding A26C G27C, the self-cleavage worked out at 0.9. The value for G27U C31A was 0.46; that for G27U C31G was 0.21; that for G27U C31U was 0.33. The figure for A26G A41C is 0.12. The figure for A26G A41U is 0.54. On to A26G A41G, for which the self-cleavage is 0.2. On to A26C U32G, for which the self-cleavage worked out at 0.13. Regarding A26C U32C, the self-cleavage stood at 0.24. Consider A26C U32A, for which the self-cleavage amounted to 0.14. For A26U C42G, the self-cleavage came out at 0.1.

With A26U C42A, the self-cleavage came to 0.29. Take A26U C42U: the self-cleavage came to 0.08. The figure for A26G is 0.87; for A26U it is 1.27. The figure for A26C is 0.9; for G27U C37G it is 0.03.

Regarding G27U C37A, the self-cleavage came to 0.03. Turning to G27U C37U, the self-cleavage was 0.07. For A26G G36C, the self-cleavage came out at 0.07.

Consider A26G G36A, for which the self-cleavage amounted to 0.28.

Regarding A26G G36U, the self-cleavage is 0.12.

With A26C U34C, the self-cleavage was determined as 0.33. The value for A26C U34A was 0.1.

As to A26C U34G, the self-cleavage worked out at 0.32.

Consider A26U U32C, for which the self-cleavage came out at 0.11. The value for A26U U32A was 0.11. The figure for A26U U32G is 0.36.

As to G27A G35C, the self-cleavage came out at 0.12. The value for G27A G35A was 0.19; that for G27A G35U was 0.22; that for A26G G30A was 2.6. The value for A26G G30C was 1.27; that for A26G G30U was 1.61; that for A26C U38A was 1.02.

Turning to A26C U38C, the self-cleavage amounted to 0.83. Turning to A26C U38G, the self-cleavage was 0.03. Consider A26C C31U, for which the self-cleavage came out at 0.17.

Turning to A26C C31A, the self-cleavage was found to be 0.38. The value for A26C C31G was 0.06; that for A26U G44C was 0.64; that for A26U G44U was 0.41.

On to A26U G44A, for which the self-cleavage was 0.64. Take A26U G27U: the self-cleavage was found to be 1.41. The figure for A26U G27C is 0.66; for A26U G27A it is 0.8. The value for A26U G30C was 1.31. The value for A26U G30U was 1.25; that for A26U G30A was 1.56. Take A26G U32C: the self-cleavage amounted to 0.18. The value for A26G U32G was 0.18; that for A26G U32A was 0.08; that for G27A G29U was 0.5.

In the case of G27A G29C, the self-cleavage came out at 0.36. The figure for G27A G29A is 0.65. The value for G27C A41G was 0.25; that for G27C A41C was 0.03; that for G27C A41U was 0.25. Turning to A26U U38C, the self-cleavage was determined as 0.48. The value for A26U U38G was 0.03; that for A26U U38A was 0.35; that for A26C G36A was 0.14. The figure for A26C G36U is 0.07; for A26C G36C it is 0.11. The value for A26G C46U was 0.58; that for A26G C46A was 1.08; that for A26G C46G was 1.53.

For the variant G27C U32G, the self-cleavage was 0.08.

Turning to G27C U32C, the self-cleavage turned out to be 0.12. G27C U32A: the self-cleavage is 0.09.
